Assay results: PMC8145246 (Toxins, 2021)

B1: MazF-mt1 toxin (M. tb), purified protein (enzyme)
chain: MMRRGEIWQVDLDPARGSEANNQRPAVVVSNDRANATATRLGRGVITVVPVTSNIAKVYPFQVLLSATTTGLQVDCKAQAEQIRSIATERLLRPIGRVSAAELAQLDEALKLHLDLWS

Legend:
[1] = target: B1; experiment: crystal structure; conditions: both partners purified
[2] = target: the molecule itself; experiment: crystal structure

Row | Binder | binding result [1] | binding result [2]
1 | TLEDDYANAWQEWSAAG [MazE-mt1 α3 peptide (Thr42-Gly58)] | binds | –
2 | B1 | – | binds
